From the DeepSol protein solubility set

Experiment: soluble on expression in E. coli; label from the status in PepcDB or PDB records

Sequence	soluble on expression in E. coli
MMKFKKCLLPVAMLASFTLAGCQSNADDHAADVYQTDQLNTKQETKTVNIISILPAKVAVDNSQNKRNAQAFGALIGAVAGGVIGHNVGSGSNSGTTAGAVGGGAVGAAAGSMVNDKTLVEGVSLTYKEGTKVYTSTQVGKECQFTTGLAVVITTTYNETRIQPNTKCPEKS	not soluble
LFTPHWIVRYLVENSLGRLWMLNRPESSLVDRMEYYIKPEKQETDFLKINSPEEIKICDPACGSGHMLVYAFDLLYAIYEEEGYTPSEIPEMILTHNLFGIEIDKRAGELAGFALAMKARGKDRRFFNKQVHPNICMLENVAFEQGELNDYIETVGRELFTNAHRATLLQFAEADNFGSLIRPVAKDISDLLHLLESKNLSGNLSLLSTHQKVLKALKQADYLSPKYHVVVANPPYMGGKGMNNRLKTFAQDNYPDSKSDTFAMFIERNLDLAVKKGMVAMITMQSWMFLSSFEKLRENILSNDTILSMAHFGARAFDSIGGEVVSTTAFVLENAQHPDYKGSYLRLVDGN	not soluble
MGSDKIHHHHHHMENVPLLQVNKMSKAFSNQLVLKEVNLQVERGDIYALVGGNGAGKSTLMKILTGLYSYDDGEMYVKGTKQQFANPSEAHRKGIYLIPQEPLIFPHMTIEENICIGLTEKKKKLRVQIEQLINSLGWDIDLNELGGSLSIAQQQLVEIVRGLIREAEILILDEPTSTLTTHEIKSLFVLMKSLQEKGIGMIYITHRFPEIFEIANKVAILRDGMIVSQGDVCDYTYDMLMEGLLPKGYKQKEKIEVVQETARTKKILEVIDITSHAFKNISFTVHADEIVGVAGIIGSGRTELAEAIFGLKTIKSGSILLEGKSIDACSLHKRLEKGLVYVPEDRARNGIFSIASVKENIAAASLQQNNRFFINQEKESALVNSFIEQFRIVVQNMNEELVSLSGGNQQKVVLAKYLACNPKIIILDEPTRGIDAKARIEVYETIEKMKREGLAILLISSDVEEIVQLANRVYVMRNGRFVSYMEKEQLSVNEVTRLAYGGVAE	not soluble
SSPTMTSSLRLRTLILGKQRWIKPRNFYQFCDKYAIGYENKKNNSLRNHKILRFNDGSVANYRIYEFEIYNFNSDSWKVFDFTPDWDISFTDLSVSLKGYTYWLIRSNGLIQEYYARSLRKMMIKNY	soluble
MKEPVKPTVKLAEIPPREPRFTPEQERIYARLSVHDPFNMLSEQHKANLIQLMTHGLGYRPIQLS	not soluble
AHHHHHHGSAGIEVQILEKKEDSIKFVLKGVHVSFANALRRTILGEVPTFAVDEVEFYENDSALFDEIIAHRLAMIPLTTPVDRFELDALELDDYTVTLSLEAEGPGIVYSGDLKSDDPDVKPVNPNIPIVKLAEGQRLVFNAYAKLGRGKDHAKWQPGFVYYKYYTIVHISKSIPEWKELKKLAKKRGLPVEETEEEVLVTTIKPFYIPKDFEEYEGKEIWEEIVPNTYIFTVETNGELPVEEIVSIALKILMRKADRFISELQKLTS	soluble
SFFMGEKTFYHIKKENLILKARMFGKITSLGISGFVMQGTNCLVQIVCNKMLFMYGGDMYVGIMTVINSVREILSVPGSTLGSGAQPVLGYNYGAKQYERVRKA	not soluble
MIRITLHTYCISELFSGDLELFASKLEETSQNQKTYSTPRSSDFRAILPTYSTPRSSDFGAILPIHSTTRLSNLSSGHSMTLLDPLVEYHFATLPDNTRPFTLPSYSTPWSSIITHHHQHHSTGHSITSSQSTQIRTQPDKLSTRKRRGEDKVFGSGLDLHRIKKPISAHYLSMGRAIRLLARLLSFYFVLYK	soluble
MSTSQEISDPAQATSSAQVKWPRYLEATLGFDNHWHPAAFDHELAEGEFVAVTMLGEKVLLTRAKGEVKAIADGCAHRGVPFSKEPLCFKAGTVSCWYHGWTYDLDDGRLVDVLTSPGSPVIGKIGIKVYPVQVAQGVVFVFIGDEEPHALSEDLPPGFLDEDTHLLGIRRTVQSNWRLGVENGFDTTHIFMHRNSPWVSGNRLAFPYGFVPADRDAMQVYDENWPKGVLDRLSENYMPVFEATLDGETVLSAELTGEEKKVAAQVSVWLPGVLKVDPFPDPTLIQYEFYVPISETQHEYFQVLQRKVEGPEDVKTFEVEFEERWRDDALHGFNDDDVWAREAQQEFYGERDGWSKEQLFPPDMCIVKWRTLASERGRGVRAARVEMSHHHHHH	soluble
